Laboratory results reported in US20130287807A1, “COMPOUNDS FOR TREATING SYMPTOMS ASSOCIATED WITH PARKINSON'S DISEASE” (priority 2008, published 2013).
One block for each molecule: values may come before it. Square brackets hold non-standard residues; d marks the D form. Ends that are not written are not given here. pGlu = O=C1CC[C@@H](C(=O)O)N1

What was measured:
[1] = test system: monoclonal antibody MV-003; assay: In vitro binding assay (ELISA), BSA-coupled peptides, parental antibody MV-003; set-up: species or system BalbC mice; settings: Table 1A; peptide-BSA on plate, compared to original epitope
Protocol: Peptides derived from Phage Display as well as variants thereof were coupled to BSA and bound to ELISA plates (1 μM; as indicated in the respective figures) and subsequently incubated with the monoclonal antibody that was used for the screening procedure to analyse binding capacity of identified peptides.
Legend to Table 1A: the binding capacity is coded by the following binding code: 1:X describes the dilution factor of the parental AB.

[2] = test system: Aβ/truncated/modified forms; assay: In vivo characterisation of mimotopes: detection of Aβ/truncated/modified forms; set-up: species or system C57/B16 mice; key: +: All peptides listed in Table 5 mount specific immune reactions against full length and/or truncated and modified forms of Aβ or fragments thereof; settings: Table 5, MV-003 derived mimotopes
Protocol: (§1) Inhibiting as well as non-inhibiting peptides were coupled to KLH and injected into mice (wildtype C57/B16 mice; subcutaneous injection into the flank) together with an appropriate adjuvant (aluminium hydroxide). Animals were vaccinated 3-6 times in biweekly intervals and sera were taken biweekly as well. Titers to injected peptides, as well as to an irrelevant peptide were determined with every serum. Furthermore, titers against the recombinant human Aβ protein, and against original peptides were determined respectively. In general sera were analysed by reaction against peptides coupled to Bovine Serum Albumin (BSA) and recombinant full length proteins which were immobilised on ELISA plates. Titers were determined using anti mouse IgG specific antibodies. For detailed results see FIGS. 15, 16 and 17 respectively and FIGS. 23, 24 and 25 respectively.
(§2) Female C57/b16 mice, 5-6 mice per group, were subcutaneously immunized with 30 μg peptide coupled to KLH. Control groups were administered original epitope-KLH conjugates respectively. As adjuvant alum was used (always 1 mg per mouse). […] The in vitro ELISA assay to determine the antibody titer was performed with sera of single mice after each vaccination in a two week interval (see FIGS. 15 and 16 respectively). The wells of the ELISA plate were coated with mimotope-BSA conjugate and an irrelevant peptide-BSA conjugate (negative control). The positive control was performed by reaction of the parental antibody with the respective mimotope-BSA conjugate. The detection was performed with anti-mouse IgG. Additionally, recombinant proteins were immobilised on ELISA plates and sera reacted accordingly. FIGS. 15 to 17 show representative examples for assays used to characterise mimotopes in vivo.
as §2, with “FIGS. 25” for “FIGS. 15”, “and 26” for “and 16”, “respectively). Titers were calculated as OD max/2 in all figures shown.” for “respectively).”, “FIGS. 23, 24 and 25” for “FIGS. 15 to 17”

[3] = test system: monoclonal antibody MV-003; assay: In vitro inhibition assay (ELISA), MV-003 binding to original epitope; set-up: species or system BalbC mice; settings: Table 2A; OD at 10 ug peptide compared to original peptide
Protocol: Different amounts of peptides (concentrations ranging from 10 μg to 0.08 μg; serial dilutions; for MV-002: concentrations ranging from 5 μg to 0.03 μg; serial dilutions), derived from Phage Display were incubated with the monoclonal antibody that was used for the screening procedure. Peptides diminishing subsequent binding of the antibody to the original epitope coated on ELISA plates were considered as inhibiting in this assay.
Legend to Table 2A: the inhibition capacity is coded by the following code: Weak inhibition means more peptide is required to lower AB binding than with the original epitope; strong inhibition means similar peptide amounts are required for mimotope and original epitope for lowering AB binding. Mimotopes are compared to the original peptide as standard. OD at 10 ug peptide used in the assay is used to calculate the competition capacity compared to original peptide.

amyloid plaques = assay: Tg2576 AD mouse model: area occupied by amyloid plaques after mimotope vaccination; type: in vivo, Tg2576 mice; settings: FIG. 18 Gr2 p4381, Gr3 p4390, Gr4 p4715, FIG. 26 Gr2 p4675, FIG. 19 Gr2 p4395
p4371 = assay: Mimotope vaccination, serum ELISA against p4371; type: in vivo, C57/B16 mice; settings: peptide-KLH vaccines with alum; FIG. 16
Protocol: as §1
(§3) Female C57/b16 mice, 5-6 mice per group, were subcutaneously immunized with 30 μg peptide coupled to KLH. Control groups were administered original epitope-KLH conjugates respectively. As adjuvant alum was used (always 1 mg per mouse). […] The in vitro ELISA assay to determine the antibody titer was performed with sera of single mice after each vaccination in a two week interval (see FIGS. 15 and 16 respectively). The wells of the ELISA plate were coated with mimotope-BSA conjugate and an irrelevant peptide-BSA conjugate (negative control). […]

p4373 = assay: Mimotope vaccination, serum ELISA against p4373; type: in vivo, C57/B16 mice; settings: peptide-KLH vaccines with alum; FIG. 16
Protocol: as §1, §3

[4] = target: monoclonal antibody MV-003; assay: ELISA on peptide-BSA; code 3 = strong binding, OD halfmax 1:>60000
[5] = target: monoclonal antibody MV-003; assay: inhibition ELISA, competitor coated original epitope p4373; code 1 = weaker than original epitope
[6] = target: DAEFRH-peptide-specific monoclonal antibody (Example 1); assay: inhibition ELISA, competitor plate-bound DAEFRH-C-BSA
[7] = target: DAEFRH-peptide-specific monoclonal antibody (Example 1); assay: inhibition ELISA, competitor plate-bound DAEFRH-C-BSA; inhibitory capacity
[8] = target: monoclonal antibody MV-004; assay: inhibition ELISA, competitor coated original epitope p4372; code 2 = strong inhibition (as original epitope)
[9] = target: monoclonal antibody MV-004; assay: ELISA on peptide-BSA; code 3 = strong binding, OD halfmax 1:>96000
[10] = target: monoclonal antibody MV-004; assay: ELISA on peptide-BSA; code 1 = weak binding, OD halfmax 1:<24000
[11] = target: monoclonal antibody MV-003; assay: inhibition ELISA, competitor coated original epitope p4373; code 2 = strong inhibition (as original epitope)

- Binding Capacity [1]: 1 (weak binding :<16000)
Molecule: IRYDMAGC [p4399]
- Detection of Aβ/truncated/modified forms [2]: +

- Binding Capacity [1]: 1 (weak binding :<16000)
Molecule: IRYDAPLC [p4397]
- Inhibition Capacity [3]: 1 (Weaker than original epitope (OD of 10 ug peptide below 12 times of original peptide))
- Detection of Aβ/truncated/modified forms [2]: +

- Binding Capacity [1]: 2 (medium binding :16-60000)
Molecule: IRWDTPC [p4395]
- Inhibition Capacity [3]: 1 (Weaker than original epitope (OD of 10 ug peptide below 12 times of original peptide))
- average occupation (relative area occupied by amyloid deposits in the brain) (amyloid plaques; Tg2576, 6 s.c. injections monthly, peptide-KLH on ALUM, mAb 3A5 staining, cortex and hippocampus, control group 0.35%): 0.21%
- reduction of area occupied by amyloid plaques following mimotope treatment (amyloid plaques; versus PBS-ALUM control group): 38%
- Detection of Aβ/truncated/modified forms [2]: +

Molecule: p(E)FRHDS-C ([pGlu]FRHDSC) [p4373, non-mimotope peptide, pyroglutamate-modified aa3-8 of Aβ]
- immune response / titers against p4371 (p4371): mount relevant titers

Molecule: EFRHDS-C (EFRHDSC) [p4371]
- immune response / titers against p4373 (p4373): mount relevant titers

- Binding Capacity [1]: 1 (weak binding :<16000)
Molecule: VRWDVYPC [p4396]
- Detection of Aβ/truncated/modified forms [2]: +

- dilution factor of the parental antibody at OD halfmax (1:X) (dilutionfactor(1:x)) [4]: > 60000
- OD at 10 ug peptide relative to OD of original peptide (inhibition ELISA) [5]: 5 to 12 fold
B1: p4756 (peptide)
peptide: IRWDQPC

- IC50 [6]: > 0.5 µg/mL
- IC50 [7]: > 500 ng/mL
B2: Peptide 3005 (peptide)
peptide: YAEFRGC

- OD at 10 ug peptide as multiple of OD with original peptide [8]: < 2 fold
B3: p4665 (peptide)
peptide: ELWHRAFC

- IC50 [6]: < 0.5 µg/mL
- IC50 [7]: < 500 ng/mL
B4: Peptide 3006 (peptide)
peptide: EAEFRGC

- OD halfmax 1:X (dilution factor of the parental antibody at half-maximal OD) (dilutionfactor(1:x)) [9]: > 96000
- OD at 10 ug peptide as multiple of OD with original peptide [8]: < 2 fold
B5: p4419 (peptide)
peptide: EVWHRLQC

- OD halfmax 1:X (dilution factor of the parental antibody at half-maximal OD) (dilutionfactor(1:x)) [10]: < 24000
- OD at 10 ug peptide as multiple of OD with original peptide [8]: < 2 fold
B6: p4790 (peptide)
peptide: ERWHEKC

- OD halfmax 1:X (dilution factor of the parental antibody at half-maximal OD) (dilutionfactor(1:x)) [9]: > 96000
- OD at 10 ug peptide as multiple of OD with original peptide [8]: < 2 fold
B7: p4418 (peptide)
peptide: ERWHEKHC

- dilution factor of the parental antibody at OD halfmax (1:X) (dilutionfactor(1:x)) [4]: > 60000
- OD at 10 ug peptide relative to OD of original peptide (inhibition ELISA) [11]: < 5 fold
B8: p4728 (peptide)
peptide: IRWDTSLC
